Among the data in paper PMC7431413 (2020) are Kd values, retold here.

To fix the notation:
B1: monobody MS3-6, displayed on yeast cells (designed binder)
chain: VSSVPTKLEVVAATPTSLLISWDAPAVTVDFYHITYGETGGNSPVQEFTVPGSKSTATISGLKPGVDYTITVYAYVSYPEYYFPSPISINYRT
B2: N-terminal domain of STAT3, biotinylated (domain or fragment)
chain: QWNQLQQLDTRYLEQLHQLYSDSFPMELRQFLAPWIESQDWAYAASKESHATLVFHNLLGEIDQQYSRFLQESNVLYQHNLRRIKQFLQSRYLEKPMEIARIVARCLWEESRLLQTAATAAQQGGQANHPTAAVVT
modifications: biotin on the Avi-tag
B3: core fragment (CF) of STAT3, biotinylated (domain or fragment)
chain: GQANHPTAAVVTEKQQMLEQHLQDVRKRVQDLEQKMKVVENLQDDFDFNYKTLKSQGDMQDLNGNNQSVTRQKMQQLEQMLTALDQMRRSIVSELAGLLSAMEYVQKTLTDEELADWKRRQQIACIGGPPNICLDRLENWITSLAESQLQTRQQIKKLEELQQKVSYKGDPIVQHRPMLEERIVELFRNLMKSAFVVERQPCMPMHPDRPLVIKTGVQFTTKVRLLVKFPELNYQLKIKVCIDKDSGDVAALRGSRKFNILGTNTKVMNMEESNNGSLSAEFKHLTLREQRCGNGGRANCDASLIVTEELHLITFETEVYHQGLKIDLETHSLPVVVISNICQMPNAWASILWYNMLTNNPKNVNFFTKPPIGTWDQVAEVLSWQFSSTTKRGLSIEQLTTLAEKLLGPGVNYSGCQITWAKFCKENMAGKGFSFWVWLDNIIDLVKKYILALWNEGYIMGFISKERERAILSTKPPGTFLLRFSESSKEGGVTFTWVEKDISGKTQIQSVEPYTKQQLNNMSFAEIIMGYKIMDATNILVSPLVYLYPDIPKEEAFGKYCRPESQEHPEADPGSAAPYLKTKFICVTPTTCSNTI
modifications: biotin on the Avi-tag

Among the targets are MS3-N1; MS3-N7; MS3-N5; MS3-8; MS3-7; MS3-1; MS3-4; MS3-2; MS3-5.
Common to all, as to assay: FACS; yeast display
Assay [1] addresses B3.

In general, Kd refers to the concentration at which binding is half-saturated. Take B1: in assay [1], the Kd is 8 nM.
With B2, the Kd came to 65 nM in the assay with MS3-N1, 38 nM with MS3-N7 and 39 nM in the assay with MS3-N5.
Turning to B3, the Kd in the assay with MS3-8 was 235 nM; with MS3-7, 135 nM; in the assay with MS3-1, 127 nM; with MS3-4, 18 nM; with MS3-2, 104 nM; with MS3-5 it was 88 nM.
